Test: yeast display, Sf9 membrane polyspecificity reagent, FACS + sequencing; frameworks hold sequencing errors
In short: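 Nanobodies came from a synthetic yeast display library in Saccharomyces cerevisiae BJ5465, induced with galactose for 36–48 hours and stained for 1 hour at 4 °C with 10% biotinylated, detergent-solubilized Sf9 membrane reagent. Cells were enriched on streptavidin microbeads and then FACS-sorted, with low and high (top ~1%) gates set on anti-HA fluorescence for expression and streptavidin fluorescence for reagent binding. Each polyreactivity label reflects the gate a clone came from. Genes were amplified by colony PCR, sequenced by MiSeq 2 × 250 and filtered by CDR length.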

Sequence | polyreactivity (PSR sort gate)
QVHLVESGGGLVQAGGSLRLSCDASGSIFTYYAIGWYRPAPGKERELVAAITNGVDSTYYADSVKGRFTISRDNAKNTVYLQINSLKPEDTAVYYCNADTVVEWFSPSREYDYWGQGTQVTVSS | low polyreactivity
QVQLVESGGGLVQAGGSLRLSCAASGFTLRSNAMGWYRQAPGKERELVASITDGTSTNYADSVKGRFTISRDNAKNTVYLQMNSLKPEDTAVYYCATRHPARRDYWGQGTQVTVSS | low polyreactivity
QVQLVESGGGLVQAGGSLRLSCAASGYTFAANAMGWYRQSPGKERELVAAITSGGGSTYYADSVKGRFTISRDNAKNTVYLKMNSLNPEDTAVDYCAALQSHGVDFDNWGQGTQVTVSS | low polyreactivity
QVQLVESGGGLVQAGGSLRLSCAASGRTFGFYAMGWYRQAPGKERELVAAISKRGGSTYYADSVKGRFTISRDNAKNTVYLQMNSLKPEDTAVYYCAAVGYYLVKFDYWGQGTQVTVSS | high polyreactivity
QVQLVESGGGLVHDGRSLRLSCSASRRTYRLYAMGLYRQAPGQERELVAAITRGGRTNYADSVMGRFTISRDNAKNTVYLQMNSLKPEDTAVYYCADRYVERHTDYYYWGQGSQVTVSS | low polyreactivity
QVQLVESGGGLVQAGGSLRLSCAASGRIFTVYAMGWYRQAPGKERELVAAISGRGGRTYYADSVKGRFTISRDNAKNTVYLQMNSLTPEDTAVYYCADYSYVRSSYEVEYDYWGQGTQVTVSS | low polyreactivity
QVQLVESGGGLVQAGGSLRLSCDASGRTIRHNAMGWYRQAPGKERELVAAISKRGGRTYYADSVKGRFTISRDNAKNTVYLQMNSLKPEDTAVYYCATRSSGYSLGDYWGQGTQVTVSS | high polyreactivity
QVQLVESGGGLVQAGGSLRLSCAASGSIFGGYTMGWYRQAPGKERELVAAISARGGNTYYADSVKGRFTISRDNAKNTVYLQMNSLKPEDTSVYYCAKVRYTQSYRGYGFWGQGTQVTVSS | high polyreactivity
QVQLVESGGGLVQAGGSLRLSCAASGSTLGGSVMGWSRQAPGKERELVASITYSGGSTRYADSVKGRFTISRDNAKNTVYLQMNSLKPEDTAVYYCAAGAQRTYYTYSFRRVGYDYDYWGQGTQVTVSS | low polyreactivity
QVKLVESGGGLVQAGGSLRLSCAASGSIFSRNTIGCDRQEPGKERELVAGISSSGSRTYYADSVKGRFTISRDNAKNTVYLQMNSLIPEDTAVYYCAAEHQRSRGRRYYIGYDYWGQGTQVTVSS | low polyreactivity
QFQLVESGGGLVQAGGSLRLSCAASGSIYRLNTMGWYRQAPGKERELVAAMSRRGGSTYYADSVKGRFTISRDNAKNTVYIQMNSLKPEDTAVYYCSADVTSFRHAPGYEYWGQGTQVTVSS | high polyreactivity
QVQLVESGGGLVQAGGSLRLSCAASGSIFYRYAMGWYRQAPGKERELVAAISSGGSTYYADSVKGRFTISRDNAKNTVYLQMNSLKPEDTAVYYCAAKHYYYSPYVRYDPPPGYYWGQGTQVTVSS | high polyreactivity
QVQLVESGGGLVQAGGSLRLSCAASGRTSRSYTMGWYRQSPGKERELVAAITRGGRTYYADSVKGRFTISRDNAKNTVYLQMNSLKPEDTAVYYCATDRVQSYGYWGQGTQVTVSS | low polyreactivity
QVQLVESGGGLVQAGGSLRLSCAASGSTFQRYAMGWYRQAPGKERELVAAITWSNGSTYYADSVKGRFTISRDNAKNTVYLQMNSLKPEDTAVYYCDAEVHLGGDYWGQGTQVTVSS | low polyreactivity
QVQLVESGGGLVQAGGSLRLSCAASGRTFLHYAMGWYRQAPGKEREFVAAIRTSGTSTYYADSVKGRFTISRDNAKNTVYLQMNSLKPEDTAVYYCAVARGSGWYWRSDYWGQGTQVTVSS | high polyreactivity
QVQLVESGGGLVQAGGSLRLSCAASGRIFPFNAMGCYRQAPGKEREFVAAIRLSGTRTYYADSVKGRFTISRDNAKNTVYLQINSLKPDDTAVYYCAAKYSGHYYNYDYWGQGTQVTVSS | high polyreactivity
QVQLVESGGGLVQAGGSLRLSCAASGITFSYNVMGWYRQAPGKERELVAAISDGGSTYYADSVKGRFTISRDNAKNTVYLLMNSLKPEDTAVYDCAKGYPYTYSQQVIYDYYYWGQGTQVTVSS | low polyreactivity
QVQLVESGGGLVQAGGSLRLSCAASGSIFRWYAMGWYRQAPGKERDLVAAITWSGGRTYYADSVKGRFTISRDNAKNTVYLQMNSLKPEDTAVYDCAKPALVTSYRVGYNYWGQGTQVTVSS | high polyreactivity
QVQLVESGGGLVQAGGSLRLSCAASGSTFWPYAMGWYRQAPGKERELVAAITTRDGSTYYADSVKGRFTISRDNAKNTVYLQMNSLKPEDTAVYYCAAKSSRYDYYYWGQGTQVTVSS | high polyreactivity
QVQLQESGGGLVQEGGSLRLSCAASGSIFKVVHMGLYRQAPAKEREFVATIGEGGNTYYADSVKGRFTISRDNAKNTVYLQMNSLKPVDTAVYFYAVVLGTSYRYTYWGQGTQVTVSS | low polyreactivity
QVQLVESGGGLVQAGGSLRLSCAASGSAYHYAMGWYSQAPGKERELVASITWRGDTTYYADSVKGRFTISRDNAKITVYLQMNSLKPEDTAVYYCAARKFFRQGGKRYDYWGQGTQVTVSS | high polyreactivity
QVQLVESGGGLVQAGGSLRLSCAASGSIFNSNAMGWYRQAPGKERELVAVISWSDGSTRYADSVKGRFTISRDNVKNTVYLQMNSLKPEDTAVYYCAADYLDGIYEYDYWGQGTQVTVSS | low polyreactivity

Sequence | polyreactivity (PSR sort gate)
QDQLVESGGRIVQAGGSLRLSCASSGRTFYTYAMGWYRKAPGKERELVAAISSSGSTYYADSVKGRFTISRDNAKNTVYLQMNSLKPEDTALYDCNARTSRYRRGGDSWGQGTQVTVSS | high polyreactivity
QVQLVESGGGLVQAGGSLRLSCAASGFTISPYAMGWYRQAPGKERELVAAITRRSGSTYDADSVKGRFTISRDNAKNTVYLQMNSLKPEDTAVYYCNAKFYTAVYSYSLFNYWGQGTQVTVSS | high polyreactivity
QVQLVESGGGLVQAGGSIRLTCAASGSTFWEYVMGWYRQAPGKERELVAAINSGGRTYYADSVKGRFTISRDNAKNTVYLQMNSLKPEDTAVYYCAADTVYRTHHYAQHYYYWGQGTQVTVSS | high polyreactivity
QVQLVESGGGLVQAGGSLRLSCAASGNTFAVNAMGWYRQAPGKERELVAAISRSGVTTRYADSVKGRFTISRDNAKNTVYLLMNSLKPEDTAVYYCNADPRLRQTRDYWGQGTQVTVSS | high polyreactivity
QFQLVDSGGGLVQAGGSLRLSCAASGRTFFFYAMGWYRQAPGKERELVASITWSGGTRTYYADSVKGRFTISRDNAKNTVYLQMNSLKREDTAVYYCADTYSSYWFNRYGGKYYYWGQGTQVTVSS | high polyreactivity
QVQLEESGGGLVQAGGCLRLSCAASGSIFEWYAMGWYRQAPGKERELVADISSVGSTYYADSVKGRFTISRDNAKNTVYLQMNSLKPEDTAVYYCNTSYIIWYDSWGQGTQVTVSS | low polyreactivity
QVQLVESGGGLVQAGGSLRLSCAASGSIFYFYAMGWYRQAPGKERELVASIRWSCGRTRYADSVKGRFTISRDNAKNTVYLQMNSLKPEDTAVYYCAARGGGRPYDYWGQGTQVTVSS | high polyreactivity
QVQLVESGGGLVQAGGSPLLSCAASGSIFPSYDMGWYRQAPGKERELVAPLSWSGSTTYSADSVKGRFTISRDNAKNTVSLQMNSLKPEDTAVYYCAVDSNPPDWWAVIYGYWGQGTQVTVSS | low polyreactivity
QVQLVESGRGLVQAGGSLRLSCAASGRIFSSNAMVWYRQAPGKERELVAAISQGGGSTYYADSVKGRFTISRDNAKITVYLQMNSLIPEDTAVYYCAAETGYSGYDDSAYEYWGQGTQVTVSS | low polyreactivity
QVQLVESGGGLVQAGGSLRLSCAASGITFGDYTMGWYRQAPGKERELVAGINWSGDGTYYADSVKGRFTISRDNAKNTVYLQMNSLKPEDTAVYYCAAETFYDYGGYDYWGQGTQVTVSS | low polyreactivity
QVQLVESGGGLVQAGGSLRLSCAASGSTFWVYDMGWYRQAPGKERELVAAISRRGGRTYYADSVKGRFTISRDNAKNTVYLQMNSLKPEDTAVYYCNRRYTQPDTRQWYDYWGQGTQVTVSS | low polyreactivity
QVQLVESGGGLVQAGGSLRLSCAASGRTFYFNAMRWYRQAPGKERELVAGISGDGSTNYADSVKGRFTISRDNAKNTVYLQMNSLKPEDTAVYYCAARIRPGYRTWYYSWGQGTQVTVSS | low polyreactivity
QVQLVESGGGLVQAGGSLRLSCAASGLIFYYYAMGWYRQAPGQERELVAAITSDDRTYYADSVKGRFTISRDNAKNTVYLQMNSLKPEDTAVYYCAARYHGYLPQYRKYGYGYWGQGTQVTVSS | high polyreactivity
QVQLVESGGGLVQAGGSLRLSCAASGSIFGSYTMGWYRQAPGKEREFVAAINFSGGRTYYADSVKGRFTISRDNAKNTVYLQMNSLKPEDTAVYYCARRWRQARYDYWGQGTQVTVSS | high polyreactivity
QVQLVESAAGLVQAGGSLRLSCAASGSNFYGNAMGWYRQAPGKERELVAAIRWRGGRTYYADSVKGRFTISRDNAKNTVYLQMNSMKPEDTAVYYCNALPGVSHTQYDRVGYWGQGTQVTVSS | high polyreactivity
QVQLVESGGGLVQAGGSLRLSCAASGGTFIVYAMGWYRQAPGKERELVAAITYSGGSTYYADSVKGRFTISRDNAKNTVYLQMNSLKPEVTAVYYCAARPFVSSWLQYAEGGDYWGQGTQVTVSS | low polyreactivity
QVQLVESGGGLVQAGGSLRLSCAASGSIFYQNAMGWYRQAPGKERELVAAISSAGSTYYADSVKGRFTISRDNAKNTVYLQMNSLKPEDTAVYYCARRSSGELGYHIYDYWGQGTQVTVSS | low polyreactivity
QVQLVESGGGLVQAGGSLRLSCAASGFTFAKYAMGWYRQAPGKERELVAAIRSRGDTTYYADSVKGRFTISRDNAKNTVYFQLNSLKPEDTAVYYCSARSYFLVDGSRYDYCGQGTQVTVSS | high polyreactivity
QVHLVESGGGLVQAGGSLRLSCAASGFIFRSYAMGWYRQAPGKEREFVAAITTRGTGTYYADSVKGRFTISRDNEKNTFYLQMNSLKPEDTAVYYCAARRGWGDDYWGQGTQVTVSS | high polyreactivity
QVQLVESGGGLVQAGGSLRLSCAASGFTFVYYDMGWYRQAPGKERELVAAISRSGGSTYYADSVKGRFTISRDNAQNTVYLQMNSLKPEDTAVYYCAAGKNYGSRLSYEYWGQGTQVTVSS | high polyreactivity
QVQLVESGGGLVQAGGSLRLSCAASGITFDLYAMGWYRQAPGKEREFVATISWTGGTTYYADSVKGRFTISRDNAKNTVYLQMNSLKPEDTAVYYCNKGSDFFWYDYDYWGQGTQVTVSS | low polyreactivity
